For this test, the target named is pGBKT7-53. Briefly: two-hybrid.

For the substance pGADT7-T (domain or fragment), the α-galactosidase activity was determined as 22.

The values above are taken from paper PMC2935870.
